# From the supplement of paper PMC9732359
# ± gives the uncertainty stated by the source.
# Assay: protein stability index of a GFP-peptide fusion (yeast GPS) (PSI 1-4); higher = more stable; sorted into four equal gates, so the index is relative within each strain
# Outline: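 Mid-log yeast cultures in leucine-free medium, carrying a pooled plasmid library, were sorted into four equal gates by their GFP/Cherry fluorescence ratio. Each plasmid expressed Cherry along with GFP fused upstream of a tiled 17-residue yeast protein peptide. Plasmids recovered from each gate were PCR-amplified and Illumina-sequenced, with reads assigned to strains by barcodes. The protein stability index was obtained by summing each gate's read frequency weighted by its gate number.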
Sequence,protein stability index (doa10∆),protein stability index (pdr5∆),protein stability index (san1∆),protein stability index (ubr1∆)
TVQYVRFFWKRSTNKKS [UBP6],1.65 ± 0.054,1.35 ± 0.047,1.2 ± 0.15,1.12 ± 0.04
DHGDGILLIDSEIARTY [RPN9],2.73 ± 0.22,3.03 ± 0.3,3.29 ± 0.17,3.17 ± 0.24
FTPEEEAAIRRENEWAE [SKP1],3.01 ± 0.11,3.25 ± 0.096,3.34 ± 0.063,3.3 ± 0.11
NQASTSKRVYKILSPTM [CDC53],2.58 ± 0.062,2.57 ± 0.05,2.54 ± 0.051,2.59 ± 0.067
TPSFSFGKTTANLPANS [YLR335W/NUP2],2.84 ± 0.069,2.96 ± 0.1,3.01 ± 0.13,3.19 ± 0.054
WTSTQRHHWQYTKASLA [SSN8],1.26 ± 0.093,1.38 ± 0.095,1.42 ± 0.16,1.46 ± 0.073
LPDGKNGNLEEEFAYVD [MED6],3.41 ± 0.066,3.44 ± 0.12,3.42 ± 0.052,3.32 ± 0.074
DEEETAEGQTNSISDFL [RPN1],2.84 ± 0.14,3.13 ± 0.094,2.94 ± 0.078,3.04 ± 0.069
IFERMIEKCLKASELKL [RPN2],2.17 ± 0.15,2.21 ± 0.099,,1.85 ± 0.079
GTSTTHGSISPQEESVS [SIR3],2.14 ± 0.043,2.56 ± 0.045,2.43 ± 0.053,2.48 ± 0.033
LRQKHEFLEDFDLVRNI [SMC2],3.1 ± 0.11,3.05 ± 0.098,3.14 ± 0.063,3.34 ± 0.099
LCRNPLTSGLLYSYLIK [YJL039C/NUP192],2.07 ± 0.064,1.84 ± 0.06,1.67 ± 0.088,1.53 ± 0.036
AKITEIGSTSKRPIESG [YIL149C/MLP2],3.23 ± 0.084,3.07 ± 0.1,3.14 ± 0.11,3.31 ± 0.059
HTEDESTKELKFSDIIQ [BRN1],3.11 ± 0.2,2.89 ± 0.21,3.23 ± 0.22,3.41 ± 0.094
PSHYPHPYEYEIDHQEY [RRP6],2.41 ± 0.055,2.58 ± 0.055,2.17 ± 0.078,2.27 ± 0.035
KVVGPRGTLTKNLKHID [RPL9A],3.27 ± 0.072,2.98 ± 0.065,2.8 ± 0.086,2.35 ± 0.052
KDLEIRKLEISSRFKHR [GAL11],2.87 ± 0.099,2.76 ± 0.081,3.16 ± 0.13,2.81 ± 0.053
RKKARTFDSSWNWAKQS [FAS2],1.79 ± 0.14,1.97 ± 0.12,2.32 ± 0.12,2.95 ± 0.074
VKKPQKSKTSTGKERSK [SNM1],3.15 ± 0.07,3.39 ± 0.085,3.549 ± 0.035,3.35 ± 0.062
KISGGNDKQGFPMKQGV [RPS6A],2.53 ± 0.071,2.83 ± 0.085,3.01 ± 0.059,2.85 ± 0.067
AEEFDFNVPVVSKQLGN [YAR002W/NUP60],2.47 ± 0.18,1.35 ± 0.17,1.28 ± 0.14,1.14 ± 0.11
TMEVKSFPILDQCVGQV [YMR129W/POM152],2.19 ± 0.09,3.08 ± 0.11,2.34 ± 0.13,2.69 ± 0.06
ALTNELNELKAIKDKLE [YIL149C/MLP2],1.35 ± 0.061,2.01 ± 0.07,1.89 ± 0.096,1.96 ± 0.058
DGLIAPGVRVSGEDVII [RPB2],3.05 ± 0.12,2.69 ± 0.085,3.29 ± 0.16,2.67 ± 0.095
EGKSVDELITEGNEKLA [RPP2A],,3.23 ± 0.16,3.41 ± 0.074,3.45 ± 0.28
LSRGDDEVTIRRTVGLK [SMC3],3.17 ± 0.096,2.73 ± 0.083,2.77 ± 0.078,2.55 ± 0.063

Sequence,protein stability index (doa10∆),protein stability index (pdr5∆),protein stability index (san1∆),protein stability index (ubr1∆)
VRLGEEDMIRSVFDATS [RPN1],,,3.12 ± 0.23,
TVNHSEKFPNDVKLLNP [RPP1],2.79 ± 0.05,2.87 ± 0.034,3.08 ± 0.036,3 ± 0.036
DRKNRAPPQRPRFNREN [RPS26A],2.81 ± 0.11,2.64 ± 0.082,3.29 ± 0.11,3.02 ± 0.091
MEDEILSLGMDFIKFDQ [BRN1],3.23 ± 0.061,3.35 ± 0.052,3.27 ± 0.041,3.15 ± 0.043
QKDKSDTYKRFKYLLGV [ISW2],1.59 ± 0.05,1.4 ± 0.062,1.4 ± 0.1,1.58 ± 0.048
QGIVRVYSKQATFLLTD [MCD1],1.97 ± 0.038,2.29 ± 0.047,2.35 ± 0.049,2.03 ± 0.037
ADINKNFLSVITNKHQE [RPN2],1.93 ± 0.074,2.11 ± 0.06,1.84 ± 0.087,1.71 ± 0.057
STCIVSLIRNNLHAEGW [ECM29],1.21 ± 0.052,1.47 ± 0.068,2 ± 0.077,1.64 ± 0.067
HILLTELLAYQFASPVR [FAS2],1.81 ± 0.019,1.7 ± 0.018,1.81 ± 0.027,1.768 ± 0.017
DIISGKIHSILPVMESL [YJR042W/NUP85],2.85 ± 0.074,3.13 ± 0.11,2.84 ± 0.11,2.4 ± 0.062
SGQFYFRNPTPLLSNYA [RGR1],1.36 ± 0.059,1.54 ± 0.045,1.8 ± 0.081,1.89 ± 0.044
IYKPLLFEIVSNADTNQ [SRB8],1.71 ± 0.06,2.11 ± 0.066,2.33 ± 0.09,1.49 ± 0.078
DRFIELISDQLLEFFEL [YML103C/NUP188],2.56 ± 0.067,2.42 ± 0.053,2.4 ± 0.053,2.74 ± 0.049
NKHLTTLVEIFLERKCV [SSN3],2.6 ± 0.17,2.73 ± 0.2,,3.2 ± 0.17
GESIMSEEPTDFGFDLD [MCD1],3.1 ± 0.13,3.25 ± 0.17,3.34 ± 0.072,3.24 ± 0.095
KKHKQKKVLEIDFFKTD [BRN1],2.54 ± 0.037,2.67 ± 0.043,2.83 ± 0.039,2.59 ± 0.035
KDYHTLANNVESKLRDD [RPS18A],3.29 ± 0.14,3.48 ± 0.15,3.39 ± 0.11,3.33 ± 0.088
EILGINLANEQPVLEKP [SIR4],3 ± 0.068,3.2 ± 0.052,3.21 ± 0.045,3.11 ± 0.046
VKEESQPDENTKEMDEV [SWI3],3.3 ± 0.19,2.81 ± 0.24,3.07 ± 0.17,3.03 ± 0.11
VECTISILRKSSPEEPF [SNF12],1.27 ± 0.061,1.46 ± 0.064,2.32 ± 0.066,1.14 ± 0.051
TGTARLNSMPNNVNEYS [YJL039C/NUP192],2.82 ± 0.1,2.74 ± 0.085,3.01 ± 0.052,2.89 ± 0.056
NLGSRTKNNTQASGITA [SSN3],2.44 ± 0.065,2.38 ± 0.045,2.18 ± 0.054,2.65 ± 0.043
RAGIIIAKLSVIPIRRG [RPS2],2.21 ± 0.077,2.13 ± 0.047,1.31 ± 0.13,2.25 ± 0.072
EQKITEIEDGQDGGVTP [RPO21],3.36 ± 0.081,3.38 ± 0.067,3.37 ± 0.048,3.31 ± 0.067
NPLIELTPIQKKIMDET [ITC1],2.67 ± 0.087,3.08 ± 0.08,3.24 ± 0.057,3.07 ± 0.076
PQALRVLRLKPGRKYTT [RPL16A],2.97 ± 0.044,3.05 ± 0.046,3.13 ± 0.046,3.21 ± 0.05
